Paper PMC4715444, “A simple and rapid method for measuring α-D-phosphohexomutases activity by using anion-exchange chromatography coupled with an electrochemical detector” (PeerJ, 2016)

Substrate: O=P(O)(O)O[C@H]1O[C@H](CO)[C@@H](O)[C@H](O)[C@H]1O
Assay: HPAEC-PAD, direct detection of hexose phosphates
Type: biochemical, Arabidopsis thaliana
Conditions: 20 mM PBS pH 7.0, 10 mM MgSO4, 20 µM glucose-1,6-bisphosphate, 30 °C
Source text: HPAEC-PAD, direct detection of hexose phosphates on AtAGM

B1: AtAGM (Arabidopsis thaliana) (protein)
chain: MDEIQIASILKSSELFPIPQGVKLSYGTAGFRGDAKLLESTVYRVGILSALRSLKLGSATVGLMITASHNKVSDNGIKVSDPSGFMLSQEWEPFADQIANASSPEELVSLIRKFMEKEEIAIGENNKGAEVWLGRDTRPSGESLLRAGEIGVGSILGSVAIDIGILTTPQLHWMVRAKNKGLKATENDYFENLSTSFRCLIDLIPSSGNDKLEISKLLVDGANGVGGQKIEKLRGSLSNLDVEIRNTGRDGGVLNEGVGADFVQKEKVLPVGFGFKDVGMRCASLDGDADRLVYFYIPSDSSEKVELLDGDKILSLFALFIKEQLNALEDDEERKQSRLGVVQTAYANGASTDYLKHLGLDVVFAKTGVKHLHEKAAEFDIGIYFEANGHGTILFSESFLSWLVSKQKDLTAKGQGGSEEHKAVSRLMAVSNLINQAVGDALSGVLLVEVILQHLGWSIEKWNELYKDLPSRQIKVEVPDRTAVVTTSEETEALRPMGIQDAINSEIKKYSRGRAFIRPSGTEDVVRVYAEASTQEDADSLANSVAQLVKSFLGSS
B1 gave a Km of 679.18 ± 156.40 µM, a Vmax of 0.137 µmol/min and a kcat of 40.4 s⁻¹.
